{"source": "patent US20240024519A1", "about": "“RADIOPHARMACEUTICAL COMPOSITIONS OF COPPER FOR TARGETED MOLECULAR IMAGING” (Curium US LLC, priority 2022, published 2024)", "experiment": "Radiochemical purity (RCP) of dose vials over time after formulation, radio-HPLC", "assay_type": "physicochemical", "conditions": "10 Ci batches, with and without SPE purification (both formulations); post-formulation, i.e. after end of synthesis", "method": "Two 10 Ci batches of copper Cu-64 PSMA I&T were prepared, wherein the primary difference between them was removal of the purification step. During purification, a solid phase extraction cartridge was used to purify the product by removing radiolabeling buffer and remaining ^64Cu copper chloride starting material; however, this step requires concentration of the batch activity in a small volume (i.e., <1 mL), which can encourage radiolytic damage and result in detrimental impacts to radiochemical purity (RCP). This phenomenon was observed experimentally when comparing the radiochemical purity of copper Cu-64 PSMA I&T prepared with and without purification (FIG. 2). The removal of the purification step yielded a product with a higher RCP of 98.9% (FIG. 2B) versus 92.4% (FIG. 2A). The difference between the two purity profiles was that the primary radiolytic impurity (tR=16.8′-17.2′) was largely absent in the non-purified product. In both formulations, the RCP of individual dose vials prepared thereof was maintained over a period of 51 h post-formulation (i.e., 51 h after end of synthesis).", "data": [{"substance": "^64Cu-(3S, 7S, 26R, 29R, 32R, 37R)-29-benzyl-32(4-hydroxy-3-iodobenzyl)-5, 13, 20, 28, 31, 34-hexaoxo-37-(4,7,10-tris(carboxymethyl)-1, 4, 7, 10-tetraazacyclododecan-1-yl)-4, 6, 12, 21, 27, 30, 33-heptaazaheptatriacontane-1, 3, 7, 26, 37-pentacarboxylic acid [Cu-64 PSMA I&T]", "values": [{"measurement": "period over which RCP of individual dose vials was maintained", "value": 51, "unit": "h"}]}]}
